Consider one molecule from paper PMC10144703, “Molecular Mechanism of Sirtuin 1 Inhibition by Human Immunodeficiency Virus 1 Tat Protein” (Life, 2023).

The target of this assay is T1, Sirt3-(93-399) (Homo sapiens, UniProt Q9NTG7).
T1 construct: Sirt3-(93-399) in a modified pET-32a; Trx-His6 (cleaved yes); made in house; host or cells: E. coli CodonPlus(DE3)
T1 sequence (Q9NTG7 93-399): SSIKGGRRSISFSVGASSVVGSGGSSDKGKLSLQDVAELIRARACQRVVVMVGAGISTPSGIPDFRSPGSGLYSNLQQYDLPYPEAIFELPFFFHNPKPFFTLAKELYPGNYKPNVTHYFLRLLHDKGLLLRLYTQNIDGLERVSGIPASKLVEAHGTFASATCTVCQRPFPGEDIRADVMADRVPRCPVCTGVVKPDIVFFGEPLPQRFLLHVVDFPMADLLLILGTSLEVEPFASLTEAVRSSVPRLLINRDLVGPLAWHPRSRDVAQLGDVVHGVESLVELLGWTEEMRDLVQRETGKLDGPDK
Kind of assay: FdL assay, Sirt3. The class given is biochemical. The settings on record: increasing Tat-Cys^−, n = 3-6. From the text:
A human mini-Sirt1 construct (aa 183-505-(GGGS)2-641-665), as described in [27], was generated in a modified pET-19b with a TEV cleavage site. This construct and human full-length Sirt1 (fl-Sirt1) in pET-15b, Sirt1-(183-664) and Sirt1-(214-664) in pET-15b, mini-Sirt1-∆SBD (aa 214-505-(GGGS)2-641-665) and mini-Sirt1-∆ESA (aa 183–505) in a modified pET-19b with TEV cleavage site, Sirt2-(43-356) in a modified pET-19b with a His6-Sumo tag, Sirt3-(93-399) in a modified pET-32a with Trx-His6 tag and TEV cleavage site, hSirt3-(118-399) in pVFT3S (Sungkyunkwan University, Seoul, Republic of Korea) with His6-Trx tag and TEV cleavage site, Sirt5-(34-302) in pET-151/D-TOPO, and Sirt6-(1-355) in pQE80L.1 were purified as described. Shortly, proteins were expressed at 20 °C (mini-Sirt1 constructs at 16 °C) in E. coli CodonPlus(DE3), cell lysates were cleared by centrifugation, and proteins were purified via affinity chromatography using a nickel NTA column. After digestion with thrombin or TEV protease, proteins were re-run over the nickel NTA column, pooled, and concentrated. The samples were, then, subjected either directly to size exclusion chromatography in 50 mM Tris/HCl, pH 8.0, 150 mM NaCl, 1 mM TCEP, or to an ion exchange chromatography followed by size exclusion chromatography. […]

B1: Tat-Cys^−: Recombinant 86-residue HIV1 Zaire 2 Tat with C22S, C25A, C27A, C30S, C31A, C34S, and C37A (protein)
chain: MDPVDPNIEPWNHPGSQPKTASNRAHAKKSAYHSQVAFITKGLGISYGRKKRRQRRRPSQGGQTHQDPIPKQPSSQPRGDPTGPKE
As for B1, under “FdL-1, Sirt3-(93-399)”, the “inhibition mode vs acetylated substrate peptide, Sirt3” value is “competitive with the acetylated substrate peptide”. The “inhibition mode vs NAD^+, Sirt3” value (NAD^+ titration, Sirt3-(93-399)) is on record as “non-competitive with NAD^+”.
